Target: recombinant aggrecan G1G2 (globular domain 1-globular domain 2 of human aggrecan with N-terminal FLAG tag and C-terminal His tag), P16112
Sequence (P16112 20-675): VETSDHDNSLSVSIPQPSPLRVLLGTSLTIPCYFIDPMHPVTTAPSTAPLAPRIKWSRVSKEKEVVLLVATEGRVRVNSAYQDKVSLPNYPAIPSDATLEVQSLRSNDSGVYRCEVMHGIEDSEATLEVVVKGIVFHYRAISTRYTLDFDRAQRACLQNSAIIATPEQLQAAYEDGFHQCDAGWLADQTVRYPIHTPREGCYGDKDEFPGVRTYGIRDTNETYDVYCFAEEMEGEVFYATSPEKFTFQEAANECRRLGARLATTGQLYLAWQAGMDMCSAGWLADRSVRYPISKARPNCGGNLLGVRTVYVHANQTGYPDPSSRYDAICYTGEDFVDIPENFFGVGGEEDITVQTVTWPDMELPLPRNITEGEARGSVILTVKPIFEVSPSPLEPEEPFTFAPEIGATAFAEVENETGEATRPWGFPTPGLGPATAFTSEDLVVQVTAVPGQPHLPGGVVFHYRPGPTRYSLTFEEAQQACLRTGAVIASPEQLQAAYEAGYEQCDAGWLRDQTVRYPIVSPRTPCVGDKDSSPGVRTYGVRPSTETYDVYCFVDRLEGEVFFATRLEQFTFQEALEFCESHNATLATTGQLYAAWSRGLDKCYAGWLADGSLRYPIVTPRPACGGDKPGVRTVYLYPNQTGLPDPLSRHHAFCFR

B1: MDTS8 full-length protein (MDTS8Full) with FLAG tag added to the C-terminus, expressed from plasmid pCEPdE2-MDTS8Full-FLAG (protein)
chain: MECALLLACAFPAAGSGPPRGLAGLGRVAKALQLCCLCCASVAAALASDSSSGASGLNDDYVFVTPVEVDSAGSYISHDILHNGRKKRSAQNARSSLHYRFSAFGQELHLELKPSAILSSHFIVQVLGKDGASETQKPEVQQCFYQGFIRNDSSSSVAVSTCAGLSGLIRTRKNEFLISPLPQLLAQEHNYSSPAGHHPHVLYKRTAEEKIQRYRGYPGSGRNYPGYSPSHIPHASQSRETEYHHRRLQKQHFCGRRKKYAPKPPTEDTYLRFDEYGSSGRPRRSAGKSQKGLNVETLVVADKKMVEKHGKGNVTTYILTVMNMVSGLFKDGTIGSDINVVVVSLILLEQEPGGLLINHHADQSLNSFCQWQSALIGKNGKRHDHAILLTGFDICSWKNEPCDTLGFAPISGMCSKYRSCTINEDTGLGLAFTIAHESGHNFGMIHDGEGNPCRKAEGNIMSPTLTGNNGVFSWSSCSRQYLKKFLSTPQAGCLVDEPKQAGQYKYPDKLPGQIYDADTQCKWQFGAKAKLCSLGFVKDICKSLWCHRVGHRCETKFMPAAEGTVCGLSMWCRQGQCVKFGELGPRPIHGQWSAWSKWSECSRTCGGGVKFQERHCNNPKPQYGGLFCPGSSRIYQLCNINPCNENSLDFRAQQCAEYNSKPFRGWFYQWKPYTKVEEEDRCKLYCKAENFEFFFAMSGKVKDGTPCSPNKNDVCIDGVCELVGCDHELGSKAVSDACGVCKGDNSTCKFYKGLYLNQHKANEYYPVVIIPAGARSIEIQELQVSSSYLAVRSLSQKYYLTGGWSIDWPGEFPFAGTTFEYQRSFNRPERLYAPGPTNETLVFEILMQGKNPGIAWKYALPKVMNGTPPATKRPAYTWSIVQSECSVSCGGGYINVKAICLRDQNTQVNSSFCSAKTKPVTEPKICNAFSCPAYWMPGEWSTCSKACAGGQQSRKIQCVQKKPFQKEEAVLHSLCPVSTPTQVQACNSHACPPQWSLGPWSQCSKTCGRGVRKRELLCKGSAAETLPESQCTSLPRPELQEGCVLGRCPKNSRLQWVASSWSECSATCGLGVRKREMKCSEKGFQGKLITFPERRCRNIKKPNLDLEETCNRRACPAHPVYNMVAGWYSLPWQQCTVTCGGGVQTRSVHCVQQGRPSSSCLLHQKPPVLRACNTNFCPAPEKREDPSCVDFFNWCHLVPQHGVCNHKFYGKQCCKSCTRKIAAADYKDDDDK
degradation product reactive with the anti-aggrecanase neoepitope antibody (western blotting after overnight reaction at 37 C): such degradation products were detected when the culture supernatant of the HEK293-EBNA cell transfected with the plasmid pCEPdE2-MDTS8Full-FLAG was reacted with the recombinant G1G2

Reference: US20030185828
